From article doi:10.1101/2020.03.10.985069 (2020)

Tests used:
[1] = target: B11/IL-10Rα complex (human (by the printed UniProt entry …, UniProt P22301 19-178; Q13651 22-235); assay: SPR; pre-bound to IL-10Rα
[2] = target: A11/IL-10Rα complex (human (by the printed UniProt entry …, UniProt P22301 19-178; Q13651 22-235); assay: SPR; pre-bound to IL-10Rα
[3] = target: R5A11/IL-10Rα complex (human (by the printed UniProt entry …, UniProt P22301 19-178; Q13651 22-235); assay: SPR; pre-bound to IL-10Rα
[4] = target: high affinity IL-10 monomer R5A11M, recombinant (human (by the printed UniProt entry …, UniProt P22301 19-178)); assay: SPR
[5] = target: IL-10 variant A11, recombinant monomer (human (by the printed UniProt entry …, UniProt P22301 19-178)); assay: SPR
[6] = target: IL-10 variant B11, recombinant monomer (human (by the printed UniProt entry …, UniProt P22301 19-178)); assay: SPR

Kd [1]: 65 nM
Kd [2]: 23 nM
Kd [3]: 100 nM
Kd [4]: 8900 nM
Kd [5]: 2400 nM
Kd [6]: 9400 nM
B1: IL-10Rβ ectodomain (amino acids 20-220), biotinylated (receptor)
chain: MVPPPENVRMNSVNFKNILQWESPAFAKGNLTFTAQYLSYRIFQDKCMNTTLTECDFSSLSKYGDHTLRVRAEFADEHSDWVNITFCPVDDTIIGPPGMQVEVLADSLHMRFLAPKIENEYETWTMKNVYNSWTYNVQYWKNGTDEKFQITPQYDFEVLRNLEPWTTYCVQVRGFLPDRNKAGEWSEPVCEQTTHDETVPS
modifications: biotin on the biotin acceptor peptide (BirA ligase)
